What all share (assay): Alanine scanning / mutagenesis epitope mapping of C5aR1
What all share (assay type): binding

In test [1] the target is T1, C5aR1 mutants (N-terminus, ECL1, ECL2, ECL3) (Homo sapiens, UniProt P21730, E179A/K279N).
T1 sequence (P21730 with tags, fused parts or gaps E179A/K279N): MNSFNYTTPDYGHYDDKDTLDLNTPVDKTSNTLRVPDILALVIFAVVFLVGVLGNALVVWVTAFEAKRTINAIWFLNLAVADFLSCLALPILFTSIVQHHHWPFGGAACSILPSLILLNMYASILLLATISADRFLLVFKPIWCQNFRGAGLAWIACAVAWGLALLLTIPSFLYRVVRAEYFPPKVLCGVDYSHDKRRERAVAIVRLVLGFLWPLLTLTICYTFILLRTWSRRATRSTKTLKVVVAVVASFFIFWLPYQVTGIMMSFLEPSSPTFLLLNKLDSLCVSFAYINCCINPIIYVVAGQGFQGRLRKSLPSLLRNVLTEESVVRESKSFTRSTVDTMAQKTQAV
Particulars: E179A. In a few lines: (§1)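 C5aR1 variants carried single alanine substitutions or introduced N-glycosylation sites across the N-terminus, ECL1, ECL2 and ECL3. Binding of individual monoclonal antibody clones to each mutant was assessed to map core epitopes. Sulfation of tyrosines 11 and 14 was considered for the site I binders.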

Test [2] has as its target T2, C5aR1 mutants (N-terminus, ECL1, ECL2, ECL3) (Homo sapiens, UniProt P21730, K279N/Y11A).
T2 sequence (P21730 with tags, fused parts or gaps Y11A/K279N): T1 sequence (P21730 with tags, fused parts or gaps E179A/K279N) with Y11A, A179E
Particulars: Y11A. In a few lines:
as §1

The target of test [3] is T3, C5aR1 mutants (N-terminus, ECL1, ECL2, ECL3) (Homo sapiens, UniProt P21730, K279N/T8A).
T3 sequence (P21730 with tags, fused parts or gaps T8A/K279N): T1 sequence (P21730 with tags, fused parts or gaps E179A/K279N) with T8A, A179E
The following applies: T8A. In a few lines:
as §1

For test [4], the target named is T4, C5aR1 mutants (N-terminus, ECL1, ECL2, ECL3) (Homo sapiens, UniProt P21730, G12E/K279N).
T4 sequence (P21730 with tags, fused parts or gaps G12E/K279N): T1 sequence (P21730 with tags, fused parts or gaps E179A/K279N) with G12E, A179E
Particulars: G12E (as in cyno and rhesus). A digest of the protocol: as §1

Test [5] addresses T5, C5aR1 mutants (N-terminus, ECL1, ECL2, ECL3) (Homo sapiens, UniProt P21730, K279N/Y14F).
T5 sequence (P21730 with tags, fused parts or gaps Y14F/K279N): T1 sequence (P21730 with tags, fused parts or gaps E179A/K279N) with Y14F, A179E
The following applies: Y14F. In a few lines:
as §1

Three molecules from patent publication US12187807B2, “Antibody molecules to C5AR1 and uses thereof” (Visterra, Inc., priority 2020, dated 2025) can be followed below.

Changes are numbered by the printed parent chain.

B1: clone 329: anti-C5aR1 Site II antibody; VH SEQ ID NO: 492, VL SEQ ID NO: 552 (antibody, V domains shown)
VH: QVQLQQSGAELTKPGASVKLSCKASGYTFTNYWMHWVKQRPGQGLEWIGYLNPSSGYTKYNQKFKDKATLTADKSSSTAYMQLNSLTYEDSAVYYCTRSGGDNYGNPYYFDRWGQGTTVTVSS
VL: DVVMTQTPLSLTVSLGDQASISCRSSQSLVHSNGNTYLHWYLQKPGQSPKFLIYKVSNRFSGVPDRFSGSGSGTDFRLKISRVEAEDLGVYFCSQSTLVPLTFGAGTKLEIK
As for B1, the “binding to C5aR1 mutant” value in test [1] is recorded as “did not reduce antibody affinity”.

B2: clone 583: anti-C5aR1 Site I antibody; VH SEQ ID NO: 536, VL SEQ ID NO: 595 (antibody, V domains shown)
VH: EVQLVESGGGLVKPGGSLKLSCAASGFTFNAYAMSWVRQTPEKRLEWVASISTGGNTYCPDSVKDRFTVSRDNVRNILYLQMSSLRSEDTAMYYCTRGYQRFSGFAYWGQGTLVTVS
VL: DVVMTQTPLSPPVSLGYQASISCRSSQSLVHSNGNTYLNWYLQKPGQSPKLLIYKVSNRLSGVPDRFSGSGSGTDFTLKISRVETEDLGVYFCSQSTHVPYTFGGGTKLEIK
On to B2, for which the “binding to C5aR1 mutant” value is listed as “abolishes binding” in test [2] and “moderately reduce binding” in test [3].

B3: clone 66: anti-C5aR1 Site I antibody; VH SEQ ID NO: 483, VL SEQ ID NO: 543 (antibody, V domains shown)
VH: QVQLQQSDAELVKPGASVKISCKASGYTFIDHAIHWVKQRPEQGLEWIGYISPGNGEIKYNEKFKAKATLTADKSSSAAYMQLNSLTSADSAVYFCKRALFYYTGKYQPMDYWGQGTTVTDSS
VL: DIVMTQSQKFMSTTAGDRVSITCKASQNVGSAVVWYQQKPGRSPKLLIYSSSIRYTGVPDRFTGSGSGTDFTLTINSVQSEDLADYFCQQYNSFPLTFGAGTKLEIK
Take B3: the “binding to C5aR1 mutant” value in test [4] is listed as “abolishes binding”; in test [5], “abolished binding”.
